Measurements as given in article PMC9288967 (Chem, 2022).

How the values were obtained:
Assay in all cases: BLI
[1] = molecular target: spike RBD of the Alpha variant (B.1.1.7) (SARS-CoV-2, Alpha (B.1.1.7), N501Y)
[2] = molecular target: spike RBD of the Epsilon variant (SARS-CoV-2, Epsilon (B.1.429), strain)
[3] = molecular target: spike RBD of the Lambda variant (SARS-CoV-2, Lambda (C.37), strain)

B1: mNb6(WT) (VHH)
VHH: QVQLVESGGGLVQAGGSLRLSCAASGYIFGRNAMGWYRQAPGKERELVAGITRRGSITYYADSVKGRFTISRDNAKNTVYLQMNSLKPEDTAVYYCAADPASPAYGDYWGQGTQVTVSS
In the case of B1, the Kd [1] is reported as 1.5 nM, the Kd [2] is reported as 1.32 ± 0.11 nM and the Kd [3] is reported as 2.86 ± 0.77 nM.
